# Experimental data taken from the RNAGym collection of RNA variant scans (doi:10.7554/elife.80360).
# B1: CPEB3 Ribozyme (parent)
# chain: GGGGGCCACAGCAGAAGCGUUCACGUCGCGGCCCCUGUCAGAUUCUGGUGAAUCUGCGAAUUCUGCUGU
# Variants of: B1
# Assay: self-cleavage, relative activity (ratio to wild type); higher = more cleavage; co-transcriptional
row,Variant,self-cleavage
1,GGGGGCCACAGCAGAAGCGUUCACGUCGCGGUCCCUGUCAGAUUCUGGUGCAUCUGCGAAUUCUGCUGU,0.964
2,GGGGGCCACAGCAGAAGCGUUCACGUCGCGGGCCCUGUCAGAUUCUGGUGAAUCUGCGAAUUCUGGUGU,0.227
3,GGGGGCCACAGCAGAAGCGUUCACGUCGCGGGCCCUGUUAGAUUCUGGUGAAUCUGCGAAUUCUGCUGU,0.332
4,GGGGGCCACAGCAGAAGCGUUCACGUCGCGGGCCCUGUCAGAUUCUGGUGAAUCUGCGAAUACUGCUGU,0.26
5,GGGGGCCACAGCAGAAGCGUUCACGUCGCGGGCCCUGUCAGAUUCUGGUGAAUCUGCGAAUCCUGCUGU,0.306
6,GGGGGCCACAGCAGAAGCGUUCACGUCGCGGGCCCUGUCAGAUUCUGGUGAAUCUGCGAAUGCUGCUGU,0.271
7,GGGGGCCACAGCAGAAGCGUUCACGUCGCGGGCCCUGUCUGAUUCUGGUGAAUCUGCGAAUUCUGCUGU,0.281
8,GGGGGCCACAGCAGAAGCGUUCACGUCGCGGGCCCUGUCAGAUUCUGUUGAAUCUGCGAAUUCUGCUGU,0.562
9,GGGGGCCACAGCAGAAGCGUUCACGUCGCGGGCCCUGUCAGAUUCUGAUGAAUCUGCGAAUUCUGCUGU,0.62
10,GGGGGCCACAGCAGAAGCGUUCACGUCGCGGGCCCUGUCAGAUUCUGGUGAAUCUGCGAAUUCUCCUGU,0.224
11,GGGGGCCACAGCAGAAGCGUUCACGUCGCGGGCCCUGUCAGAUUCUGGUGAAUCUGCGAAUUCUACUGU,0.288
12,GGGGGCCACAGCAGAAGCGUUCACGUCGCGGGCCGUGUCAGAUUCUGGUGAAUCUGCGAAUUCUGCUGU,0.303
13,GGGGGCCACAGCAGAAGCGUUCACGUCGCGGGCCAUGUCAGAUUCUGGUGAAUCUGCGAAUUCUGCUGU,0.143
14,GGGGGCCACAGCAGAAGCGUUCACGUCGCGGGCCCUGUCAGAUUCUGGUGAAUCUGCGAAUUCGGCUGU,0.253
15,GGGGGCCACAGCAGAAGCGUUCACGUCGCGGGCCCUGUCAGAUUCUGGUGAAUCUGCGAAUUCAGCUGU,0.235
16,GGGGGCCACAGCAGAAGCGUUCACGUCGCGGGCCCUGUCAGAUUCUGGUGAAUCUGCGAAAUCUGCUGU,0.292
17,GGGGGCCACAGCAGAAGCGUUCACGUCGCGGGCCCUGUCAGAUUGUGGUGAAUCUGCGAAUUCUGCUGU,0.434
18,GGGGGCCACAGCAGAAGCGUUCACGUCGCGGGCCCUGUCAGAUUCUGGUGAAUGUGCGAAUUCUGCUGU,0.335
19,GGGGGCCACAGCAGAAGCGUUCACGUCGCGGGCCCUGUCAGAUUCUGGUGAAUAUGCGAAUUCUGCUGU,0.356
20,GGGGGCCACAGCAGAAGCGUUCACGUCGCGGUACCUGUCAGAUUCUGGUGAAUCUGCGAAUUCUGCUGU,0.593

row,Variant,self-cleavage
1,GGGGGCCACAGCAGAAGCGUUCACGUCGCGGUUCCUGUCAGAUUCUGGUGAAUCUGCGAAUUCUGCUGU,0.861
2,GGGGGCCACAGCAGAAGCGUUCACGUCGCGGGCCCUGUCAAAUUCUGGUGAAUCUGCGAAUUCUGCUGU,0.35
3,GGGGGCCACAGCAGAAGCGUUCACGUCGCGGGCCCUGUCACAUUCUGGUGAAUCUGCGAAUUCUGCUGU,0.267
4,GGGGGCCACAGCAGAAGCGUUCACGUCGCGGGCCCUUUCAGAUUCUGGUGAAUCUGCGAAUUCUGCUGU,0.149
5,GGGGGCCACAGCAGAAGCGUUCACGUCGCGGGCCCUAUCAGAUUCUGGUGAAUCUGCGAAUUCUGCUGU,0.195
6,GGGGGCCACAGCAGAAGCGUUCACGUCGCGGGCCCUCUCAGAUUCUGGUGAAUCUGCGAAUUCUGCUGU,0.184
7,GGGGGCCACAGCAGAAGCGUUCACGUCGCGGGCCCUGUCAGAUUCUGGUGUAUCUGCGAAUUCUGCUGU,0.419
8,GGGGGCCACAGCAGAAGCGUUCACGUCGCGGGCCCUGUCAGAUUCUGGUGCAUCUGCGAAUUCUGCUGU,0.353
9,GGGGGCCACAGCAGAAGCGUUCACGUCGCGGUCCCUGUCAGAUUCUGGUGAAUCUGCGAGUUCUGCUGU,0.906
10,GGGGGCCACAGCAGAAGCGUUCACGUCGCGGUCCCUGUCAGAUUCUGGUGAAUCUGCGAAUUCUGCUGU,0.993
11,GGGGGCCACAGCAGAAGCGUUCACGUCGCGGGCCCUGUCAGAUUCUGGUGAAACUGCGAAUUCUGCUGU,0.266
12,GGGGGCCACAGCAGAAGCGUUCACGUCGCGGUCCCUGUCAGGUUCUGGUGAAUCUGCGAAUUCUGCUGU,0.914
13,GGGGGCCACAGCAGAAGCGUUCACGUCGCGGUCCCUGUCAGUUUCUGGUGAAUCUGCGAAUUCUGCUGU,0.933
14,GGGGGCCACAGCAGAAGCGUUCACGUCGCGGUCCCUGUCAGCUUCUGGUGAAUCUGCGAAUUCUGCUGU,0.961
15,GGGGGCCACAGCAGAAGCGUUCACGUCGCGGUCACUGUCAGAUUCUGGUGAAUCUGCGAAUUCUGCUGU,0.541
16,GGGGGCCACAGCAGAAGCGUUCACGUCGCGGUCCGUGUCAGAUUCUGGUGAAUCUGCGAAUUCUGCUGU,0.349
17,GGGGGCCACAGCAGAAGCGUUCACGUCGCGGGCCCGGUCAGAUUCUGGUGAAUCUGCGAAUUCUGCUGU,0.191
18,GGGGGCCACAGCAGAAGCGUUCACGUCGCGGUCCCUGUCAGAUUCUGGUGAUUCUGCGAAUUCUGCUGU,0.987
19,GGGGGCCACAGCAGAAGCGUUCACGUCGCGGUCCCUGUCAGAUUCUGGUGAGUCUGCGAAUUCUGCUGU,0.967
